According to the supplement of paper PMC9170038:

Test system: MS2 coat protein
Experiment: apparent KD of MS2 coat protein; designed switch direction (-1 OFF switch, 1 ON switch): -1; higher = weaker reporter binding
In short: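 The apparent KD reported per design is the median over clusters of curve fits to normalised cluster fluorescence. The RNA switches were transcribed on Illumina chips by stalled E. coli RNA polymerase. SNAP-549-labelled MS2 coat protein was titrated from 0.7 or 1.5 nM, doubling up to 3 µM, in Tris-HCl pH 7.5 buffer containing KCl, MgCl2, BSA, DTT, tRNA and Tween-20, with no input, 200 uM small-molecule ligand, or an oligonucleotide input.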

[1] = Eterna round: R95, input ligand: FMN 200 uM
[2] = Eterna round: R95, input ligand: microRNA oligo, concentration not stated
[3] = Eterna round: R95, input ligand: none
[4] = input ligand: microRNA oligo, concentration not stated

Row | Sequence | apparent KD of MS2 coat protein (input ligand: FMN 200 uM) | apparent KD of MS2 coat protein (input ligand: none) | apparent KD of MS2 coat protein [1] | apparent KD of MS2 coat protein [2] | apparent KD of MS2 coat protein [3] | apparent KD of MS2 coat protein [4]
1 | CGUAGCAUUGUGAGGAUAUCUAGAGCUUCGGCUCUAGAGAAGGCACAUGAGGAUCACCCAUGUGAUUAGCUACG [BmEx4/9-C1] (Eterna round: R97, puzzle: Brourd's mod of Exclusion 4) | 1760 nM | 111 nM |  |  |  | 
2 | CGUAGUCUUCGGACUACGAACAUGAGGAUCACCCAUGUAAUGAGCAGAUCCUCAUGCAAGCUUUUUGCUCGUCUUAU [Sensor v3 - turn-off variant 1 - 46] (puzzle: Sensor v3, turn-off variant 1) |  |  | 13.8 nM | 11.5 nM | 20.7 nM | 
3 | CGUAGUCUUCGGACUACGAACAUGAGGAUCACCCAUGUAUAGAGCAGAUCUUCAUGCAAGCUUUUUGCUCGUCUUAU [Sensor v3 - turn-off variant 1 - 48] (puzzle: Sensor v3, turn-off variant 1) |  |  | 82 nM | 10.8 nM | 86.6 nM | 
4 | CGUCAGUGAGGAUAUGGUAUCGUUUACAUGAGGAUCACCCAUGUUUCAUGGGACUAGAGACUAGAAGGUACUGACG [EX5 #43] (Eterna round: R97, puzzle: Exclusion 5) | 408 nM | 579 nM |  |  |  | 
5 | CGUCAUCAAGUCAGGAUAUCGUCAAAUCAAUCAGGCGAGAAGGGACAUGAGGAUCACCCAUGUCGACUCAUCAC [Ex4 #3] (Eterna round: R97, puzzle: Brourd's mod of Exclusion 4) | 24.9 nM | 21.3 nM |  |  |  | 
6 | CGUCCGGCUUCCCUUCAAGACAUGAGGAUCACCCAUGUUUUUGUUUUUGCGAGCUUUUUGCUUUUUGCUCGUCUUGU [Even Better Attempt 2] (puzzle: Sensor v3, turn-off variant 1) |  |  | 20.2 nM | 13 nM | 18.7 nM | 
7 | CGUCCUCUAGUUAGGAUAUUGUCUCGGAUACGAAACAAGAAGGGACAUGAGGAUCACCCAUGUAAUGAGGACGA [Malc #30 mod 16] (puzzle: Brourd's mod of Exclusion 4) |  |  |  | 27.3 nM |  | 
8 | CGUGACUCAGGAUAUCUAUUAUGUCACAUGAGGAUCACCCAUGUCCAGCGAAAGCUGGAGGGAGAAGGGAGUCACG [Fiskers Ex 5 - 45] (puzzle: Exclusion 5) |  |  |  | 118 nM |  | 
9 | CGUGAGUCAGGAUAUGCCUGUACUAACUUGAGGAUCACCCAAGUGUCCUCCCGGUGCAAUGCAGAAGGGACGACGA [Oninlein] (Eterna round: R97, puzzle: Exclusion 5) | 765 nM | 74.2 nM |  |  |  | 
10 | CGUGCGUAUGUGAGGAUAUGCUGGUCCUUGGAUCGGCAGAAGGUACAUGAGGAUCACCCAUGUGGUGUCGUUCU [salish99_Bmod_ex4_106] (puzzle: Brourd's mod of Exclusion 4) |  |  |  | 171 nM |  | 
11 | CGUGGCUUUUACGUGAGUGGUGGGUGCAACAGGUGGGUUACAUGAGGAUCACCCAUGUGCUCACUUGCUCGUCUUUU [Grok-var2-10] (puzzle: Sensor v3, turn-off variant 2) |  |  | 51.8 nM | 17.5 nM | 52.5 nM | 
12 | CGUGUACUGCAGGAUAUCCUAGAUGCGGACAUCGGAGAAGGGCAGACAUGAGGAUCACCCAUGUGUGGCGGAGA [EX6 B.16] (Eterna round: R97, puzzle: Exclusion 6) | 221 nM | 67.3 nM |  |  |  | 
13 | CGUUACUACAAGCUUUGGGACAUGAGGAUCACCCAUGUUCGUCUUAUUGUAGUAGGUACGCUGACGUACCUACUACU [JL-sv1-2.10 Brourd mod] (puzzle: Sensor v3, turn-off variant 1) |  |  | 15.6 nM | 29 nM | 13.9 nM | 
14 | CGUUGGCGAGGAUAUACAUGAGGAUCACCCAUGUGAGAGAUACUAGUGAGGUCGAUUAGUAGAAGGCGCUGACG [Mat X3R4 m1] (Eterna round: R97, puzzle: Exclusion 3) | 949 nM | 34.9 nM |  |  |  | 
15 | CUAAAAGUCGAGGAUAUGCACCGGCUCGCUGACGCAGAAGGCGACACAUGAGGAUCACCCAUGUCGGUACGCGA [salish99_ex6_r004_451] (Eterna round: R97, puzzle: Exclusion 6) | 33.9 nM | 18.3 nM |  |  |  | 
16 | CUAAAUCAUGUAGGAUAUGCGUAGCAAAGCUAUGCAGAAGGACAUGAGGAUCACCCAUGUCAUUCCGUCUGGAGACAGACGGGA [Mat - Exclusion NG 1 - Mod of JL - D55] (Eterna round: R96, puzzle: Exclusion NG 1) | 186 nM | 30.8 nM |  |  |  | 21.6 nM
17 | CUAAAUCAUGUAGGAUAUGCGUGGCAAAGCUAUGCAGAAGGACAUGAGGAUCACCCAUGUCAUUCCGUCUGAGAACAGACGGGA [Mat - Exclusion NG 1 - Mod of JL - D51] (Eterna round: R96, puzzle: Exclusion NG 1) | 172 nM | 22.1 nM |  |  |  | 17.1 nM

Row | Sequence | apparent KD of MS2 coat protein (input ligand: FMN 200 uM) | apparent KD of MS2 coat protein (input ligand: none) | apparent KD of MS2 coat protein [1] | apparent KD of MS2 coat protein [2] | apparent KD of MS2 coat protein [3] | apparent KD of MS2 coat protein [4]
18 | CUAAAUCAUGUAGGAUAUGCGUGGCGAAGCUAUGCAGAAGGACAUGAGGAUCACCCAUGUCAUUCCGUCUGCGUACAGACGGGA [Mat - Exclusion NG 1 - Mod of JL - D48] (Eterna round: R96, puzzle: Exclusion NG 1) | 133 nM | 28.6 nM |  |  |  | 21 nM
19 | CUAACACAUGAGGAUCACCCAUGUGAGGAUAUGCGUACGUUGUCCGUAGGCGACGUGCGCAGAAGGCGCUUGGU [JL-ex1-3.20 Eli mod] (puzzle: Exclusion 1) |  |  |  | 51.9 nM |  | 
20 | CUACUCGUUGUGAGGAUAUCGUUUUCGUCACGGAUCGAGAAGGCACAUGAGGAUCACCCAUGUUUGAUGUGGAU [JR_BMOE4_Sub091] (Eterna round: R96, puzzle: Brourd's mod of Exclusion 4) | 89 nM | 38.1 nM |  |  |  | 29.9 nM
21 | CUACUCGUUGUGAGGAUAUCGUUUUCGUCACGGAUCGAGAAGGCACAUGAGGAUCACCCAUGUUUGAUGUGGAU [JR_BMOE4_Sub091] (puzzle: Brourd's mod of Exclusion 4) |  |  |  | 30.9 nM |  | 
22 | CUACUGUGAGGAUAUGGUGAGUAGUGCCUGAGCGCUGCUCACCAGAAGGCACAUGAGGAUCACCCAUGUAUGAC [JL-ex4-2.03 denovo] (puzzle: Exclusion 4) |  |  |  | 43.5 nM |  | 
23 | CUAGCGAUUGUAGGAUAUCGGACUGUUUCAGUCUGAGAAGGACAUGAGGAUCACCCAUGUGAAGCAACGUGAGUUGCACGCUAG [JL ENG1 3.83] (Eterna round: R96, puzzle: Exclusion NG 1) | 47.9 nM | 22 nM |  |  |  | 13.8 nM
24 | CUAGCGGGUGUAGGAUAUCGGACUGUUUCAGUCUGAGAAGGACAUGAGGAUCACCCAUGUAUUGCUGCGUGAGUAGCACGCUAG [JL ENG1 3.98] (Eterna round: R96, puzzle: Exclusion NG 1) | 46.8 nM | 34.1 nM |  |  |  | 23.4 nM
25 | CUAGUAUAUCAGGAUAUGAUUUUGUGUAGUUAAUCAGAAGGGAUGACAUGAGGAUCACCCAUGUUAAGGGAUGA [JR_Ex6_Sub046] (Eterna round: R97, puzzle: Exclusion 6) | 324 nM | 83.3 nM |  |  |  | 
26 | CUAGUCCGAGGAUAUAUUAUGUGAUACAUGAGGAUCACCCAUGUUAUAUGAUGGAUGUUAGUAGAAGGCGGACUAG [Mat - Exclusion 5 - JL mod - D81] (puzzle: Exclusion 5) |  |  | 86.3 nM | 96.6 nM | 79.3 nM | 
27 | CUAUAGUCAGGAUAUCUAAACAGGCCGAGCGUUCGCAGUCGAGAGAAGGGACAUGAGGAUCACCCAUGUCCUCC [Eternabot (L1) Solution 6] (Eterna round: R97, puzzle: Exclusion 4) | 15.2 nM | 15.6 nM |  |  |  | 
28 | CUAUGUGAUUAGGAUAUUACUGGGCUAUCGCCUUGAGAAGGAGUUACAUGAGGAUCACCCAUGUCAACGCGACC [Eternabot (L2) Solution 44] (Eterna round: R97, puzzle: Exclusion 6) | 17.8 nM | 19.1 nM |  |  |  | 
29 | CUAUGUGCGAGAGGAUAUCGUGUACAAAGUACACGAGAAGGCUUCACAUGAGGAUCACCCAUGUACCGAGGUGAAACACCUUGA [Omei Exc(NG)1 Bv6] (Eterna round: R96, puzzle: Exclusion NG 1) | 744 nM | 510 nM |  |  |  | 261 nM
30 | CUAUUGGCAGGAUAUGCUUUUUUAGACAUGAGGAUCACCCAUGUGAUGAAUUUUGGGUUUGCAGAAGGGCCUGAGU [JR_E5_Sub038] (puzzle: Exclusion 5) |  |  |  | 56.6 nM |  | 
31 | CUCAAACAUGAGGAUCACCCAUGUCAGGAUAUGAUACUAUGUACUUCGGUACAUAGUAUCAGAAGGGAUAUGAA [Ex1-3: 66] (puzzle: Exclusion 1) |  |  |  | 69.3 nM |  | 
32 | CUCAAGUUAGGAUAUCCAAACGACACGUGCGGACGUUCAACGGAGAAGGGACUUGAGGAUCACCCAAGUUAAAA [Riusbireis] (Eterna round: R97, puzzle: Exclusion 4) | 137 nM | 45 nM |  |  |  | 
33 | CUCACGCUCGAGGAUAUCGCACAAAACAAUCAACGAGAAGGCGAGACAUGAGGAUCACCCAUGUGUGGUCAAGA [Ceceed] (Eterna round: R97, puzzle: Exclusion 6) | 80.9 nM | 590 nM |  |  |  | 
34 | CUCAUGCCUGAGGAUAUGCUGUACAAAAGUACUGCAGAAGGUGGAACAUGAGGAUCACCCAUGUGGCGAAAGCC [Omei Ex G4] (Eterna round: R97, puzzle: Exclusion 6) | 253 nM | 66.1 nM |  |  |  | 
